Biological target: T1, restricted (IL4 independent) hIL13 receptor (human, UniProt Q14627 27-380)
T1 construct: whole, on cells; also called restricted receptor; restrictive receptor
T1 sequence (looked up): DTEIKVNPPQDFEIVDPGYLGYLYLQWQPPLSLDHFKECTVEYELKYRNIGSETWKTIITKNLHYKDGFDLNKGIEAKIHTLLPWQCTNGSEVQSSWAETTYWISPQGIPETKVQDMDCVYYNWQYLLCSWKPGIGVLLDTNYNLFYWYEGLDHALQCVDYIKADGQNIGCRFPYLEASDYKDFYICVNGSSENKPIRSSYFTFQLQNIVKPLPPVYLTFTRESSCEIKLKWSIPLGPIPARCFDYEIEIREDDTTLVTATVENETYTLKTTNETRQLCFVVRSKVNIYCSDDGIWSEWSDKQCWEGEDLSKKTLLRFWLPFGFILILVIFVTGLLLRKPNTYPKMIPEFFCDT
Experiment: autoradiography competition on GBM tissue sections against ^125I-hIL13.E13Y
Protocol: Serial tissue sections were cut (10 mm) on a cryostat, thaw-mounchrome alumme-alum coated slides, and stored at 4° C. until analyzed. […] To dissociate non-specifically bound radioligand, sections were rinsed in four consecutive changes (5 minutes each) of ice-cold 0.1 M PBS. […] After drying, labeled sections were apposed to Kodak autoradiography film at −65° C. for 8 hr to 11 days.

B1: recombinant hIL4 (human interleukin 4) (ligand, UniProt P05112 25-153, looked up)
chain: HKCDITLQEIIKTLNSLTEQKTLCTELTVTDIFAASKNTTEKETFCRAATVLRQFYSHHEKDTRCLGATAQQFHRHKQLIRFLKRLDRNLWGLAGLNSCPVKEANQSTLENFLERLKTIMREKYSKCSS
binding result: no binding (tested: 100- to 500-fold molar excess)
